The record followed here is article PMC8982864 (PLoS Biology, 2022).

Holding throughout (experiment): ELISA
The target of experiment [1] is CSPG4 domain 1 fragment D1_(401-560) with C-terminal GFP tag (UniProt Q6UVK1).
For experiment [2], the target named is truncated wild-type TcdB (residues 550-1902) (Clostridioides difficile (VPI 10463 …, UniProt P18177 550-1902)). Particulars: both partners purified.
Experiment [3] concerns the target full-length Clostridioides difficile Toxin B (TcdB), C-terminal 6XHis-tag (Clostridioides difficile (VPI 10463 …, UniProt P18177 1-2366)). Particulars: both partners purified.

“truncated TcdB (550-1902) [change] (from UniProt P18177 550-1902) (domain or fragment)” yielded a fold reduction of binding against wild type in experiment [1] of 1 fold.

B1: CSPG4 domain 1 fragment D1_(401-560) with C-terminal GFP tag (domain or fragment, UniProt Q6UVK1 401-560, looked up)
chain: LAPEAWPAMELPEPCVPEPGLPPVFANFTQLLTISPLVVAEGGTAWLEWRHVQPTLDLMEAELRKSQVLFSVTRGARHGELELDIPGAQARKMFTLLDVVNRKARFIHDGSEDTSDQLVLEVSVTARVPMPSCLRRGQTYLLPIQVNPVNDPPHIIFPHG
notes: not shown: GFP, C-terminal, kept
Consider B1, for which the binding result in experiment [2] is reported as “binds”.

B2: D1_(401-560) D457A, C-terminal GFP tag (domain or fragment)
chain: LAPEAWPAMELPEPCVPEPGLPPVFANFTQLLTISPLVVAEGGTAWLEWRHVQPTLALMEAELRKSQVLFSVTRGARHGELELDIPGAQARKMFTLLDVVNRKARFIHDGSEDTSDQLVLEVSVTARVPMPSCLRRGQTYLLPIQVNPVNDPPHIIFPHG
notes: as for B1
B2: the binding result in experiment [3] is reported as “binds”.

B3: D1_(401-560) E460A, C-terminal GFP tag (domain or fragment)
chain: LAPEAWPAMELPEPCVPEPGLPPVFANFTQLLTISPLVVAEGGTAWLEWRHVQPTLDLMAAELRKSQVLFSVTRGARHGELELDIPGAQARKMFTLLDVVNRKARFIHDGSEDTSDQLVLEVSVTARVPMPSCLRRGQTYLLPIQVNPVNDPPHIIFPHG
notes: as for B1
As for B3, the binding result in experiment [3] is “binds”.
